Data: the MegaScale stability set (Tsuboyama et al. 2023)

B1: EHEE_rd2_0601 (parent)
chain: TYTYKLTDEEASRRAEDEWRNRGYDVRVRNNNGTWEVEVR

Variants of: B1
Test: folding stability dG (cDNA display proteolysis); higher = more stable
Settings: PBS, room temperature
For TYTYKLTDEEASRTAEDEWRNRGYDVRVRNNNGTWEVEVR [R14T], the “folding stability dG” value was 0.957 kcal/mol.
In the case of TYTYKLTDEEASRQAEDEWRNRGYDVRVRNNNGTWEVEVR [R14Q], the “folding stability dG” value is reported as 1.35 kcal/mol.
For TYTYKLTDEEASRNAEDEWRNRGYDVRVRNNNGTWEVEVR [R14N], the “folding stability dG” value was 1.04 kcal/mol.
With TYTYKLTDEEASRGAEDEWRNRGYDVRVRNNNGTWEVEVR [R14G] the “folding stability dG” value was 0.487 kcal/mol.
With TYTYKLTDEEASRIAEDEWRNRGYDVRVRNNNGTWEVEVR [R14I] the “folding stability dG” value was 1.35 kcal/mol.
With TYTYKLTDEEASRFAEDEWRNRGYDVRVRNNNGTWEVEVR [R14F] the “folding stability dG” value was 1.13 kcal/mol.
For TYTYKLTDEEASRLAEDEWRNRGYDVRVRNNNGTWEVEVR [R14L], the “folding stability dG” value was 1.33 kcal/mol.
With TYTYKLTDEEASRYAEDEWRNRGYDVRVRNNNGTWEVEVR [R14Y] the “folding stability dG” value was 0.942 kcal/mol.
For TYTYKLTDEEASRKAEDEWRNRGYDVRVRNNNGTWEVEVR [R14K], the “folding stability dG” value was 1.53 kcal/mol.
For TYTYKLTDEEASREAEDEWRNRGYDVRVRNNNGTWEVEVR [R14E], the “folding stability dG” value was 1 kcal/mol.
For TYTYKLTDEEASRWAEDEWRNRGYDVRVRNNNGTWEVEVR [R14W], the “folding stability dG” value was 0.994 kcal/mol.
With TYTYKLTDEEASRVAEDEWRNRGYDVRVRNNNGTWEVEVR [R14V] the “folding stability dG” value was 1.29 kcal/mol.
With TYTYKLTDEEASRMAEDEWRNRGYDVRVRNNNGTWEVEVR [R14M] the “folding stability dG” value was 1.2 kcal/mol.
In the case of TYTYKLTDEEASRAAEDEWRNRGYDVRVRNNNGTWEVEVR [R14A], the “folding stability dG” value is reported as 1.36 kcal/mol.
In the case of TYTYKLTDEEASRSAEDEWRNRGYDVRVRNNNGTWEVEVR [R14S], the “folding stability dG” value is reported as 0.898 kcal/mol.
For TYTYKLTDEEASRHAEDEWRNRGYDVRVRNNNGTWEVEVR [R14H], the “folding stability dG” value was 1.22 kcal/mol.
With TYTYKLTDEEASRPAEDEWRNRGYDVRVRNNNGTWEVEVR [R14P] the “folding stability dG” value was -0.495 kcal/mol.
In the case of TYTYKLTDEEASRDAEDEWRNRGYDVRVRNNNGTWEVEVR [R14D], the “folding stability dG” value is reported as 0.704 kcal/mol.
With TYTYKLTDEEASRRAEIEWRNRGYDVRVRNNNGTWEVEVR [D17I] the “folding stability dG” value was 2.17 kcal/mol.
With TYTYKLTDEEASRRAEKEWRNRGYDVRVRNNNGTWEVEVR [D17K] the “folding stability dG” value was 2.02 kcal/mol.
With TYTYKLTDEEASRRAEHEWRNRGYDVRVRNNNGTWEVEVR [D17H] the “folding stability dG” value was 1.68 kcal/mol.
With TYTYKLTDEEASRRAETEWRNRGYDVRVRNNNGTWEVEVR [D17T] the “folding stability dG” value was 1.99 kcal/mol.
For TYTYKLTDEEASRRAEGEWRNRGYDVRVRNNNGTWEVEVR [D17G], the “folding stability dG” value was 1.24 kcal/mol.
For TYTYKLTDEEASRRAEYEWRNRGYDVRVRNNNGTWEVEVR [D17Y], the “folding stability dG” value was 1.77 kcal/mol.
For TYTYKLTDEEASRRAELEWRNRGYDVRVRNNNGTWEVEVR [D17L], the “folding stability dG” value was 2.06 kcal/mol.
For TYTYKLTDEEASRRAEWEWRNRGYDVRVRNNNGTWEVEVR [D17W], the “folding stability dG” value was 1.92 kcal/mol.
In the case of TYTYKLTDEEASRRAEVEWRNRGYDVRVRNNNGTWEVEVR [D17V], the “folding stability dG” value is reported as 2.08 kcal/mol.
In the case of TYTYKLTDEEASRRAEFEWRNRGYDVRVRNNNGTWEVEVR [D17F], the “folding stability dG” value is reported as 1.86 kcal/mol.
With TYTYKLTDEEASRRAEQEWRNRGYDVRVRNNNGTWEVEVR [D17Q] the “folding stability dG” value was 2.08 kcal/mol.
For TYTYKLTDEEASRRAEREWRNRGYDVRVRNNNGTWEVEVR [D17R], the “folding stability dG” value was 2.1 kcal/mol.
For TYTYKLTDEEASRRAEMEWRNRGYDVRVRNNNGTWEVEVR [D17M], the “folding stability dG” value was 2.11 kcal/mol.
For TYTYKLTDEEASRRAEEEWRNRGYDVRVRNNNGTWEVEVR [D17E], the “folding stability dG” value was 1.99 kcal/mol.
In the case of TYTYKLTDEEASRRAESEWRNRGYDVRVRNNNGTWEVEVR [D17S], the “folding stability dG” value is reported as 1.88 kcal/mol.
In the case of TYTYKLTDEEASRRAENEWRNRGYDVRVRNNNGTWEVEVR [D17N], the “folding stability dG” value is reported as 1.78 kcal/mol.
For TYTYKLTDEEASRRAEAEWRNRGYDVRVRNNNGTWEVEVR [D17A], the “folding stability dG” value was 2.17 kcal/mol.
For TYTYKLTDEEASRRAIDEWRNRGYDVRVRNNNGTWEVEVR [E16I], the “folding stability dG” value was 1.82 kcal/mol.
In the case of TYTYKLTDEEASRRAFDEWRNRGYDVRVRNNNGTWEVEVR [E16F], the “folding stability dG” value is reported as 1.73 kcal/mol.
With TYTYKLTDEEASRRAHDEWRNRGYDVRVRNNNGTWEVEVR [E16H] the “folding stability dG” value was 1.08 kcal/mol.
For TYTYKLTDEEASRRATDEWRNRGYDVRVRNNNGTWEVEVR [E16T], the “folding stability dG” value was 1.29 kcal/mol.
In the case of TYTYKLTDEEASRRARDEWRNRGYDVRVRNNNGTWEVEVR [E16R], the “folding stability dG” value is reported as 1.19 kcal/mol.
With TYTYKLTDEEASRRAWDEWRNRGYDVRVRNNNGTWEVEVR [E16W] the “folding stability dG” value was 1.3 kcal/mol.
For TYTYKLTDEEASRRAADEWRNRGYDVRVRNNNGTWEVEVR [E16A], the “folding stability dG” value was 2.56 kcal/mol.
In the case of TYTYKLTDEEASRRAKDEWRNRGYDVRVRNNNGTWEVEVR [E16K], the “folding stability dG” value is reported as 0.777 kcal/mol.
For TYTYKLTDEEASRRAGDEWRNRGYDVRVRNNNGTWEVEVR [E16G], the “folding stability dG” value was 1.4 kcal/mol.
In the case of TYTYKLTDEEASRRAMDEWRNRGYDVRVRNNNGTWEVEVR [E16M], the “folding stability dG” value is reported as 1.68 kcal/mol.
For TYTYKLTDEEASRRADDEWRNRGYDVRVRNNNGTWEVEVR [E16D], the “folding stability dG” value was -0.24 kcal/mol.
In the case of TYTYKLTDEEASRRAVDEWRNRGYDVRVRNNNGTWEVEVR [E16V], the “folding stability dG” value is reported as 2 kcal/mol.
With TYTYKLTDEEASRRAQDEWRNRGYDVRVRNNNGTWEVEVR [E16Q] the “folding stability dG” value was 1.46 kcal/mol.
For TYTYKLTDEEASRRALDEWRNRGYDVRVRNNNGTWEVEVR [E16L], the “folding stability dG” value was 1.54 kcal/mol.
In the case of TYTYKLTDEEASRRAYDEWRNRGYDVRVRNNNGTWEVEVR [E16Y], the “folding stability dG” value is reported as 1.86 kcal/mol.
For TYTYKLTDEEASRRASDEWRNRGYDVRVRNNNGTWEVEVR [E16S], the “folding stability dG” value was 1.47 kcal/mol.
In the case of TYTYKLTDEEASRRAPDEWRNRGYDVRVRNNNGTWEVEVR [E16P], the “folding stability dG” value is reported as -0.034 kcal/mol.
In the case of TYTYKLTDEEASRRANDEWRNRGYDVRVRNNNGTWEVEVR [E16N], the “folding stability dG” value is reported as 0.335 kcal/mol.
With TYTYKLTDEEASDRAEDEWRNRGYDVRVRNNNGTWEVEVR [R13D] the “folding stability dG” value was 0.014 kcal/mol.
For TYTYKLTDEEASHRAEDEWRNRGYDVRVRNNNGTWEVEVR [R13H], the “folding stability dG” value was 0.979 kcal/mol.
With TYTYKLTDEEASARAEDEWRNRGYDVRVRNNNGTWEVEVR [R13A] the “folding stability dG” value was 0.771 kcal/mol.
In the case of TYTYKLTDEEASFRAEDEWRNRGYDVRVRNNNGTWEVEVR [R13F], the “folding stability dG” value is reported as 0.619 kcal/mol.
In the case of TYTYKLTDEEASCRAEDEWRNRGYDVRVRNNNGTWEVEVR [R13C], the “folding stability dG” value is reported as 0.559 kcal/mol.
With TYTYKLTDEEASWRAEDEWRNRGYDVRVRNNNGTWEVEVR [R13W] the “folding stability dG” value was 0.841 kcal/mol.
For TYTYKLTDEEASERAEDEWRNRGYDVRVRNNNGTWEVEVR [R13E], the “folding stability dG” value was 0.263 kcal/mol.
For TYTYKLTDEEASIRAEDEWRNRGYDVRVRNNNGTWEVEVR [R13I], the “folding stability dG” value was 0.934 kcal/mol.
For TYTYKLTDEEASMRAEDEWRNRGYDVRVRNNNGTWEVEVR [R13M], the “folding stability dG” value was 0.987 kcal/mol.
